Assay results: patent US20180170984, “SITE-SPECIFIC DNA BASE EDITING USING MODIFIED APOBEC ENZYMES” (Regents of the University of Minnesota, published 2018)

How the values were obtained:
APOBEC3A D131T = APOBEC3A D131T (Homo sapiens, UniProt P31941 SEQ:1-199, D131T); experiment: deamination, 50 nM enzyme, 1 h 37 C; settings: tags: myc-His, 293T; label: 3'-fluorescein
Description: (§1) FIGS. 10A-10C provide corroborating biochemical data for human A3A. FIGS. 10A and 10B show DNA cytosine deamination by human A3A (WT, wild-type) and the indicated mutant derivatives (S, substrate; P, product). The corresponding anti-MYC (A3A) and anti-TUBULIN immunoblots indicated similar levels of A3A and soluble extract in each experiment relative to controls (A3A has two bands due to alternative translation initiation from Met1 or Met13). Reactions in FIG. 10A interrogated active site mutants using a 43-nucleotide 5′-TC-containing ssDNA substrate, and reactions in FIG. 10B additionally interrogated the identity of the −1 position (A, C, G, or T) relative to the target cytosine. The results are representative of two independent experiments. FIG. 10C is a series of graphs quantifying product accumulation in dose response experiments for A3A and the indicated D131 derivatives using the same ssDNA substrates as FIG. 10B.
(§2) Recombinant A3A-myc-His and mutant derivatives were expressed in 293T cells and purified as described by nickel affinity chromatography (Stenglein et al., supra; Li et al., supra; and Carpenter et al. 2012, supra). Activity assays were conducted as outlined above, except reactions were initiated by adding 5 μl of enzyme (2-fold dilutions starting at 200 nM) to 5 μl of 50 mM NaCl, 10 mM HEPES buffer (pH 7.4) containing 1.6 μM fluorescently labeled ssDNA (sequences above). Reactions progressed 1 hour at 37° C. and processed and quantified as described above.

APOBEC3A D131A = APOBEC3A D131A (Homo sapiens, UniProt P31941 SEQ:1-199, D131A); experiment: deamination, 50 nM enzyme, 1 h 37 C; settings: tags: myc-His, 293T; label: 3'-fluorescein
Chain of APOBEC3A D131A (P31941 whole entry D131A): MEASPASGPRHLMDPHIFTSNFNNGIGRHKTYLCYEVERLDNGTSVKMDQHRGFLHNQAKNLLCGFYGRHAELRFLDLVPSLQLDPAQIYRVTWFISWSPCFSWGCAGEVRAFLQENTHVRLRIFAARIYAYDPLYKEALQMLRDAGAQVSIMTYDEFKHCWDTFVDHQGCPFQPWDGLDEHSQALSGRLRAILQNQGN
Description: as §1, §2

APOBEC3A wild-type = APOBEC3A wild-type (Homo sapiens, UniProt P31941 SEQ:1-199); experiment: deamination, 50 nM enzyme, 1 h 37 C; settings: tags: myc-His, 293T; label: 3'-fluorescein
Chain of APOBEC3A wild-type (P31941 whole entry): as the sequence (P31941 whole entry D131A) above, with A131D counted along it
Description: as §1, §2

APOBEC3A D131E = APOBEC3A D131E (Homo sapiens, UniProt P31941 SEQ:1-199, D131E); experiment: deamination, 50 nM enzyme, 1 h 37 C; settings: tags: myc-His, 293T; label: 3'-fluorescein
Chain of APOBEC3A D131E (P31941 whole entry D131E): as the sequence (P31941 whole entry D131A) above, with A131E counted along it
Description: as §1, §2

APOBEC3A E72A (1-195) = APOBEC3A E72A (1-195) (Homo sapiens, UniProt P31941 SEQ:1-195, E72A); experiment: structure; crystal structure 3.15 Å, PDB 5SWW, U-shaped ssDNA, Zn
Chain of APOBEC3A E72A (1-195) (P31941 1-195 E72A): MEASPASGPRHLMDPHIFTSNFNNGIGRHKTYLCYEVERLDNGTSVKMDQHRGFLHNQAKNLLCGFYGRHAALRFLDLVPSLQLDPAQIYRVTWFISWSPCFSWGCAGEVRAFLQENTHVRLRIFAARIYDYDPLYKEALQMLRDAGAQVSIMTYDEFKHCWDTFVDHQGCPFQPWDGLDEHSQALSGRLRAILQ
Experimental: Purified A3A and A3Bctd* were mixed with ˜1.5 molar excess ssDNA (see below) at a final protein concentration of 25-30 mg ml⁻¹. The A3A-ssDNA complex crystal was obtained in a sitting drop formed by mixing the complex solution with an equal volume of 0.2 M NaF, 20% (w/v) PEG3350, 0.1 M Bis-Tris propane (pH 6.5), equilibrated via vapor diffusion against the same reservoir solution. The A3Bctd*-ssDNA crystal was obtained similarly, using a reservoir solution consisting of 0.45 M NaI and 20% (w/v) PEG3350. The crystals were mounted directly from the Intelli-Plate 96 (Art Robbins Instruments) and flash cooled in liquid nitrogen using glycerol or ethylene glycol as cryo-protectant. X-ray diffraction data were collected at the Advanced Photon Source Northeastern Collaborative Access Team beamline 24-ID-C using the selenium K-absorption edge wavelength, and the data were processed with XDS (Kabsch, Acta Crystallogr D Biol Crystallogr 66:125-132, 2010). The A3A-DNA complex crystal is in the space group of P2221. […] Using monomeric A3A (pdb 4XXO; Bohn et al., Structure 23:903-911, 2015) as a search model, the molecular replacement calculations by PHASER (McCoy et al., J Appl Crystallogr 40:658-674, 2007) located four copies of A3A in the asymmetric unit. […]

Chain of APOBEC3A D131T (P31941 whole entry D131T): as the sequence (P31941 whole entry D131A) above, with A131T counted along it

Binder	activity (APOBEC3A D131T)	activity (APOBEC3A D131A)	activity (APOBEC3A wild-type)	activity (APOBEC3A D131E)	binding result (APOBEC3A E72A (1-195))
ATTATTATTATTCAAATGGATTTATTTATTTATTTATTTATTT (ssDNA) [-1 TCA substrate]	96.6 % product	3.7 % product	98.3 % product	27.3 % product	–
ATTATTATTATACAAATGGATTTATTTATTTATTTATTTATTT (ssDNA) [-1 ACA substrate]	16.6 % product	8.7 % product	7.6 % product	36.6 % product	–
ATTATTATTATCCAAATGGATTTATTTATTTATTTATTTATTT (ssDNA) [-1 CCA substrate]	67.5 % product	10.1 % product	42.9 % product	–	–
ATTATTATTATGCAAATGGATTTATTTATTTATTTATTTATTT (ssDNA) [-1 GCA substrate]	14.2 % product	4 % product	13 % product	30.8 % product	–
AAAAAAATCGGGAAA (ssDNA) [A3A crystallization ligand]	–	–	–	–	binds
